The text below walks through data of patent publication CN118638216A.

The target in this experiment is 新型冠状病毒SARS-CoV-2和SARS-CoV以及动物来源的SARS-like冠状病毒S1. As to the kind of experiment: ELISA, S1 proteins coated at 2 μg/mL, antibody titrated from 10 μg/mL.

B1: 全人源广谱抗sarbecovirus和/或新冠突变株的抗体(VSCM8-83) (antibody, V domains shown)
VH: EVQLVEFGGGLVQPGGSLRLSCAASGFAVSSNYMSWVRQAPGKGLEWVSVIYGDGTTYYGDSVKGRFTISRHNSKNTLYLQMNSLRTEDTAVYYCARIVSEAFDLWGQGTMVTVSS
VL: DIQMTQSPSTLSASVGDRVTITCRASQSIGRWLAWYQQKPGKAPKLLIYMASILESGVPSRFSGSGSATEFTLTISSLQPDDFATYYCQQYNGYSQYTFGQGTKLEIKR
The molecule B1 gave an EC50 of 0.0397 to 0.0749 µg/mL.
